Test results as given in publication doi:10.1101/2025.04.02.646877 (bioRxiv, 2025).

B1: lac repressor (LacI), functional dimeric form (residues 1-331) (domain or fragment, E. coli, UniProt P03023 1-331, looked up)
chain: MKPVTLYDVAEYAGVSYQTVSRVVNQASHVSAKTREKVEAAMAELNYIPNRVAQQLAGKQSLLIGVATSSLALHAPSQIVAAIKSRADQLGASVVVSMVERSGVEACKAAVHNLLAQRVSGLIINYPLDDQDAIAVEAACTNVPALFLDVSDQTPINSIIFSHEDGTRLGVEHLVALGHQQIALLAGPLSSVSARLRLAGWHKYLTRNQIQPIAEREGDWSAMSGFQQTMQMLNEGIVPTAMLVANDQMALGAMRAITESGLRVGADISVVGYDDTEDSSCYIPPLTTIKQDFRLLGQTSVDRLLQLSQGQAVKGNQLLPVSLVKRKTTLA
B2: ribose repressor (RbsR) (natural protein, E. coli, UniProt P0ACQ0 1-330, looked up)
chain: MATMKDVARLAGVSTSTVSHVINKDRFVSEAITAKVEAAIKELNYAPSALARSLKLNQTHTIGMLITASTNPFYSELVRGVERSCFERGYSLVLCNTEGDEQRMNRNLETLMQKRVDGLLLLCTETHQPSREIMQRYPTVPTVMMDWAPFDGDSDLIQDNSLLGGDLATQYLIDKGHTRIACITGPLDKTPARLRLEGYRAAMKRAGLNIPDGYEVTGDFEFNGGFDAMRQLLSHPLRPQAVFTGNDAMAVGVYQALYQAELQVPQDIAVIGYDDIELASFMTPPLTTIHQPKDELGELAIDVLIHRITQPTLQQQRLQLTPILMERGSA

Biological target: the molecule itself
Experiment: SEC-MALS

Protein | stoichiometry N
B1 | 2
B2 | 2
